Sequences and labels used below:
T1: Human FVIIa (human, UniProt P08709 61-466)
T1 construct: Bought protein; also called factor VIIa
T1 sequence (looked up): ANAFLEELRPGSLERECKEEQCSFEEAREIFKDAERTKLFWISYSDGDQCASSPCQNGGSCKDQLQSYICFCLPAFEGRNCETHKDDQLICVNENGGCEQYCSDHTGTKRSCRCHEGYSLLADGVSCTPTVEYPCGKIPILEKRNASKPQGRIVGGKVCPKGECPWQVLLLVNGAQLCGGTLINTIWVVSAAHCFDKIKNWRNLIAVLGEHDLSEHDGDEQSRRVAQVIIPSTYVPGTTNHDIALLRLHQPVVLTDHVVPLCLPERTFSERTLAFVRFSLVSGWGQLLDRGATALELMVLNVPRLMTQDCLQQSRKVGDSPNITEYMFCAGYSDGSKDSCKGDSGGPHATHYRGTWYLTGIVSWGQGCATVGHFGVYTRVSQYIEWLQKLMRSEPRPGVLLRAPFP

B1: scFV(TF)3e10 (dimer) (scFv)
scFv: EMAQVNLRESGGTLVQPGGSLRLSCAASGFSFTDAWMSWVRQAPGKELEWVSSISGSGGSTYYAGSVKGRFTISRDNSKNTLYLQMNSLRAEDTAVYYCARVLSLTDYYWYGMDVWGQGTLVTVSAGGGGSGAPNFMLTQPHSVSASPGKTVTISCTRSSGSVASYYVQWYQQRPGSSPTTVIYEDNHRPSGVPDRFSGSIDTSSNSASLTISGLKTEDEADYYCQSYDSNNLVVFGGGTKLTVLGAAAGAPVPYPDPLEPRAA
B2: single chain anti-TF antibody scFv(TF)3e10 (scFv)
scFv: B1 scFv
notes: Human scFv from phage library HuPhaBL3
B3: recombinant human soluble tissue factor (receptor, UniProt P13726 33-251, looked up)
chain: SGTTNTVAAYNLTWKSTNFKTILEWEPKPVNQVYTVQISTKSGDWKSKCFYTTDTECDLTDEIVKDVKQTYLARVFSYPAGNVESTGSAGEPLYENSPEFTPYLETNLGQPTIQSFEQVGTKVNVTVEDERTLVRRNNTFLSLRDVFGKDLIYTLYYWKSSSSGKKTAKTNTNEFLIDVDKGENYCFSVQAVIPSRTVNRKSTDSPVECMGQEKGEFRE
notes: extracellular domain; also called sTF; soluble TF
B4: scFv(TF)3e10-TMi456 fusion protein (other)
chain: EMAQVNLRESGGTLVQPGGSLRLSCAASGFSFTDAWMSWVRQAPGKELEWVSSISGSGGSTYYAGSVKGRFTISRDNSKNTLYLQMNSLRAEDTAVYYCARVLSLTDYYWYGMDVWGQGTLVTVSAGGGGSGAPNFMLTQPHSVSASPGKTVTISCTRSSGSVASYYVQWYQQRPGSSPTTVIYEDNHRPSGVPDRFSGSIDTSSNSASLTISGLKTEDEADYYCQSYDSNNLVVFGGGTKLTVLGAAAGGGGSGGGGSGGGGSVEPVDPCFRANCEYQCQPLNQTSYLCVCAEGFAPIPHEPHRCQMFCNQTACPADCDPNTQASCECPEGYILDDGFICTDIDECENGGFCSGVCHNLPGTFECICGPDSALAGQIGTDCAAAGAPVPYPDPLEPRAA

The target in series [1] is full length TF in phospholipid vesicles (human, UniProt P13726 33-295). The experiment in a line: cell-based or functional assay.
The target of series [2] is T2, sTF/FVIIa complex (preformed from sTF and a 2.3 fold molar excess of FVIIai) (human, UniProt P13726 33-251; P08709 61-466, limits assumed, active site inhibited (FVIIai); the way of inhibition is not stated for this batch).
T2 construct: Complex used in the microcalorimeter cell; complete complexing of sTF verified by size exclusion chromatography; also called sTF/VIIa complex; FVIIa/TF complex
The experiment in a line: isothermal titration calorimetry. Here is the method: (§1) FIG. 3. […] Isothermal titration calorimetry was performed using a MicroCal VP-ITC instrument. […] Data analysis was done using MicroCal Origin software. The data was fit to a single binding site.

For series [3], the target named is B3. The experiment in a line: isothermal titration calorimetry (MicroCal VP-ITC), 10 uM sTF in the cell, 141 uM scFv in the syringe; microcalorimetry, free sTF as target. Here is the method: as §1
Series [4] concerns the target B3. The experiment in a line: isothermal titration calorimetry (MicroCal VP-ITC), 141 µM scFv(TF)3e10 in the syringe, 10 µM sTF in the cell, OneSites model. Here is the method: as §1
Series [5] deals with T2, sTF/FVIIa complex (preformed from sTF …). The series is described as follows: isothermal titration calorimetry (MicroCal VP-ITC), 1.2 uM complex in the cell, 65 uM scFv in the syringe; microcalorimetry, TF/FVIIa complex as target. As to the method: as §1
Series [6] shares this target. The experiment in a line: isothermal titration calorimetry (MicroCal VP-ITC), 65 µM scFv(TF)3e10 in the syringe, 1.2 µM preformed sTF/FVIIai complex in the cell, OneSites model. Here is the method: as §1
For series [7], the target named is B3. The series is described as follows: apparent KD from the sTF/FVIIa chromogenic activation assay (3 nM sTF, 2 nM FVIIa, antibody titrated, 4-parameter fit); sTF/FVIIa chromogenic assay, apparent KD.
For the next series, the target named is T1, Human FVIIa. The experiment in a line: sTF/FVIIa activation assay: sTF titrated against 2 nM FVIIa without antibody, rate of cleavage of chromogenic substrate S-2266, apparent KD from a 4-parameter fit.

Take B1: in series [1], the “IC50 for inhibition in the FX activation assay” value worked out at 0.44 nM.

As for B2, the “fold higher affinity than for free sTF” value in series [2] came to 20 fold. Besides, the Kd in series [3] was 600 nM; in series [5], 33 nM; in series [7], 65.4 nM. Moreover, the values for the N in series [4] and in series [6] were 0.878 and 1.14, respectively. For the same molecule, the figures for the ΔH in series [4] and in series [6] were -21.9 kcal/mol and -28.6 kcal/mol, respectively. Further, the ΔS in series [4] was -43.6; in series [6] it was -60.

Take B3: the Kd in the series with Human FVIIa came out at 13 nM.

Turning to B4, in series [1], the “IC50 of FX activation by the FVIIa/TF complex” value amounted to 0.5 nM and the “TM cofactor activity (protein C activation assay on TF-rich surface)” value was > 5 fold.

For the origin of these results see patent publication US20040063632A1 (Bayer, published 2004).
